In patent publication US20240132578A1:

Assays:
Assay in all cases: cell-based or functional assay
[1] = target: HIV-1 envelope glycoprotein (Env) of isolate MG RM-AG-006 (HIV-1)
[2] = target: HIV-1 Env of pseudovirus isolate MGRM-Chronic-B-008 (clade B) (HIV-1)
[3] = target: HIV-1 Env of pseudovirus MGRM-F1-020 (HIV-1)
[4] = target: HIV-1 envelope glycoprotein (Env) of isolate MG RM-AG-002 (HIV-1)
[5] = target: HIV-1 Env of isolate MGRM-D-005 (HIV-1)
[6] = target: HIV-1 envelope glycoprotein (Env) of isolate MG RM-AG-005 (HIV-1)
[7] = target: HIV-1 Env of pseudovirus MGRM-F1-012 (HIV-1)
[8] = target: HIV-1 Env of pseudovirus MGRM-D-013 (HIV-1)
[9] = target: HIV-1 Env of pseudovirus MGRM-D-020 (HIV-1)
[10] = target: HIV-1 Env of isolate MGRM-G-011 (subtype G) (HIV-1)
[11] = target: HIV-1 Env of pseudovirus MGRM-F1-008 (HIV-1)
[12] = target: HIV-1 MGRM-AE-007 Env (pseudovirus) (HIV-1)
[13] = target: HIV-1 Env of pseudovirus MGRM-G-028 (HIV-1)
[14] = target: HIV-1 APV-13 envelope (Env) on pseudovirus (HIV-1)
[15] = target: HIV-1 APV-6 envelope (Env) on pseudovirus (HIV-1)
[16] = target: HIV-1 Env of pseudovirus MGRM-G-024 (HIV-1)
[17] = target: HIV-1 envelope glycoprotein (Env) of isolate MGRM-C-020 (HIV-1)
[18] = target: HIV-1 Env of pseudovirus MGRM-G-016 (HIV-1)
[19] = target: HIV-1 Env of isolate MGRM-A-002 (clade A pseudovirus) (HIV-1)
[20] = target: HIV-1 Env of isolate 92RW008 (clade A pseudovirus) (HIV-1)
[21] = target: HIV-1 Env of isolate MGRM-A-014 (clade A pseudovirus) (HIV-1)
[22] = target: HIV-1 MGRM-AE-006 Env (pseudovirus) (HIV-1)
[23] = target: HIV-1 MGRM-AG-001 Env (pseudovirus) (HIV-1)
[24] = target: HIV-1 MGRM-G-009 Env (pseudovirus) (HIV-1)
[25] = target: HIV-1 Env of isolate 92BR020, clade B (HIV-1)
[26] = target: HIV-1 Env of isolate MGRM-D-004 (clade D pseudovirus) (HIV-1)
[27] = target: HIV-1 CMU02 envelope (Env) on pseudovirus (HIV-1)
[28] = target: HIV-1 Env of isolate 6535.3 (Acute), clade B (HIV-1)
[29] = target: HIV-1 92RW021 envelope glycoprotein (Env) on pseudovirus (HIV-1 (clade A))

1443_C16 (PG16) (TCN-116) (antibody), sequence (VH): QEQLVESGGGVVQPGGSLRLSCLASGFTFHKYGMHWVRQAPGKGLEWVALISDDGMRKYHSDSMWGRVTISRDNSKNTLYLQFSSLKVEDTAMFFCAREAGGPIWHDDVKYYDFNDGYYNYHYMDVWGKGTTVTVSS
1443_C16 (PG16) (TCN-116) (antibody), sequence (VL): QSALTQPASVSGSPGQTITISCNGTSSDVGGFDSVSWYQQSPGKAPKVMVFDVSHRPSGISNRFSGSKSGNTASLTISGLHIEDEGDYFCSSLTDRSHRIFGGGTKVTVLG
PGT-141 (4964_G22; 4993_K13) (antibody), sequence (VH): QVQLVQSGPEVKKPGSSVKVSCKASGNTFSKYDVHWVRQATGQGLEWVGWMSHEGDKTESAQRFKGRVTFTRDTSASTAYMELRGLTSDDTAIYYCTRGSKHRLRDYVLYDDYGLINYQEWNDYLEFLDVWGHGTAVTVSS
PGT-141 (4964_G22; 4993_K13) (antibody), sequence (VL): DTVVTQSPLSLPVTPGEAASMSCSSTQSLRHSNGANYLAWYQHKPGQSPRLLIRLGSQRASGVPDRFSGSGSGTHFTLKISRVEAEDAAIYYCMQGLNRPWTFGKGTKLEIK
PGT-142 (4995_E20) (antibody), sequence (VH): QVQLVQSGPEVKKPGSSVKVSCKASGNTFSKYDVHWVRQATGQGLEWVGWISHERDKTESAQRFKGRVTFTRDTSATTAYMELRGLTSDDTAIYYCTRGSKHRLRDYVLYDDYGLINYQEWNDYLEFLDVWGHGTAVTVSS
PGT-145 (4995_P16) (antibody), sequence (VH): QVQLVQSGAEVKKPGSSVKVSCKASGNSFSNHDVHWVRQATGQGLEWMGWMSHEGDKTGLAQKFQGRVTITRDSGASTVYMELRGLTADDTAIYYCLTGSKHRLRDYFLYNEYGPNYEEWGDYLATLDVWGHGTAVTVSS
PGT-145 (4995_P16) (antibody), sequence (VL): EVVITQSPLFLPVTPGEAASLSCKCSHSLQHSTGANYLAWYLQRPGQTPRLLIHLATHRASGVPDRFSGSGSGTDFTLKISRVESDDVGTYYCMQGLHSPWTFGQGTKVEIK

Substance | IC50 [1] | IC50, pseudovirus neutralization [3] | IC50 (µg/ml), pseudovirus neutralization [12] | IC50 (µg/ml), pseudovirus neutralization [13] | neutralization IC50 [14] | neutralization IC50 [15] | IC50 (µg/ml), pseudovirus neutralization [16] | IC50 (µg/ml), pseudovirus neutralization [17] | IC50 (µg/ml), pseudovirus neutralization [18] | IC50 (µg/ml), pseudovirus neutralization [19] | IC50 (µg/ml), pseudovirus neutralization [20] | IC50 (µg/ml), pseudovirus neutralization [21] | IC50 (µg/ml), pseudovirus neutralization [22] | IC50 (µg/ml), pseudovirus neutralization [23] | IC50 (µg/ml), pseudovirus neutralization [24] | IC50 (µg/ml), pseudovirus neutralization [25] | IC50, pseudovirus neutralization [26] | neutralization IC50 [27] | IC50 (µg/ml), pseudovirus neutralization [28] | IC50 (µg/ml), pseudovirus neutralization [29] | further results
VRC01 (antibody) | 0.344 µg/mL | 1.89 µg/mL | – | – | – | – | – | – | – | – | – | – | – | – | – | – | – | – | – | – | IC50, pseudovirus neutralization [2]: 0.155 µg/mL; IC50 [4]: 0.95 µg/mL; IC50 (µg/mL), pseudovirus neutralization [5]: > 50 µg/mL; IC50 [6]: 0.091 µg/mL; IC50, pseudovirus neutralization [7]: 0.488 µg/mL; IC50, pseudovirus neutralization [8]: 0.087 µg/mL; IC50, pseudovirus neutralization [9]: 0.192 µg/mL; IC50 (µg/mL), pseudovirus neutralization [10]: 0.065 µg/mL; IC50, pseudovirus neutralization [11]: 1.11 µg/mL
2F5 (antibody) | – | – | 0.07 µg/mL | 2.24 µg/mL | 2.8 µg/mL | 0.1 µg/mL | 1.07 µg/mL | > 50 µg/mL | 16.8 µg/mL | > 50 µg/mL | 10.4 µg/mL | 1.43 µg/mL | 0.18 µg/mL | 0.75 µg/mL | 7.21 µg/mL | > 50 µg/mL | 2.3 µg/mL | 0.38 µg/mL | 2.76 µg/mL | 4.16 µg/mL | –
1495_C14 (PGC14) (antibody) | – | – | > 50 µg/mL | > 50 µg/mL | > 50 µg/mL | 7.41 µg/mL | > 50 µg/mL | > 50 µg/mL | > 50 µg/mL | > 50 µg/mL | 37 µg/mL | > 50 µg/mL | > 50 µg/mL | > 50 µg/mL | > 50 µg/mL | 4 µg/mL | > 50 µg/mL | > 50 µg/mL | 35 µg/mL | > 50 µg/mL | –
PGT-141 (4964_G22; 4993_K13) (antibody) | > 50 µg/mL | 1.15 µg/mL | – | – | – | – | – | – | – | – | – | – | – | – | – | – | – | – | – | – | IC50 [4]: 0.049 µg/mL; IC50 [6]: 0.497 µg/mL; IC50, pseudovirus neutralization [7]: > 50 µg/mL; IC50, pseudovirus neutralization [8]: 0.179 µg/mL; IC50, pseudovirus neutralization [9]: > 50 µg/mL; IC50, pseudovirus neutralization [11]: 0.193 µg/mL
1443_C16 (PG16) (TCN-116) (antibody) | – | – | 0.04 µg/mL | 3.09 µg/mL | > 50 µg/mL | 0.08 µg/mL | 0.01 µg/mL | > 50 µg/mL | 11.3 µg/mL | 0.004 µg/mL | 0.002 µg/mL | 20.3 µg/mL | 0.03 µg/mL | 0.03 µg/mL | > 50 µg/mL | > 50 µg/mL | 0.01 µg/mL | > 50 µg/mL | 36.9 µg/mL | 0.11 µg/mL | –
4E10 (antibody) | – | – | 0.45 µg/mL | 6.32 µg/mL | 3.8 µg/mL | 0.4 µg/mL | 1.57 µg/mL | 2.8 µg/mL | 1.02 µg/mL | 6.45 µg/mL | 14.5 µg/mL | 1.74 µg/mL | 0.23 µg/mL | 1.12 µg/mL | 1.34 µg/mL | > 50 µg/mL | 1.58 µg/mL | 0.59 µg/mL | 1.23 µg/mL | 4.87 µg/mL | –
2G12 (antibody) | – | – | > 50 µg/mL | 28.2 µg/mL | 23.9 µg/mL | 5.3 µg/mL | > 50 µg/mL | 18.6 µg/mL | > 50 µg/mL | > 50 µg/mL | 22.5 µg/mL | > 50 µg/mL | > 50 µg/mL | 0.69 µg/mL | > 50 µg/mL | 4.84 µg/mL | > 50 µg/mL | > 50 µg/mL | 3.85 µg/mL | > 50 µg/mL | –
PGT-145 (4995_P16) (antibody) | 6.6 µg/mL | 0.816 µg/mL | – | – | – | – | – | – | – | – | – | – | – | – | – | – | – | – | – | – | IC50 [4]: 0.056 µg/mL; IC50 [6]: 0.045 µg/mL; IC50, pseudovirus neutralization [7]: 0.113 µg/mL; IC50, pseudovirus neutralization [8]: 3.48 µg/mL; IC50, pseudovirus neutralization [9]: 10 µg/mL; IC50, pseudovirus neutralization [11]: 0.228 µg/mL
PGT-142 (4995_E20) (antibody) | > 50 µg/mL | 0.824 µg/mL | – | – | – | – | – | – | – | – | – | – | – | – | – | – | – | – | – | – | IC50 [4]: 0.044 µg/mL; IC50 [6]: 0.383 µg/mL; IC50, pseudovirus neutralization [7]: > 50 µg/mL; IC50, pseudovirus neutralization [8]: 0.221 µg/mL; IC50, pseudovirus neutralization [9]: > 50 µg/mL; IC50, pseudovirus neutralization [11]: 0.124 µg/mL
b12 (antibody) | – | – | > 50 µg/mL | > 50 µg/mL | > 25 µg/mL | > 25 µg/mL | 2.38 µg/mL | > 50 µg/mL | > 50 µg/mL | > 50 µg/mL | 9.46 µg/mL | > 50 µg/mL | > 50 µg/mL | 11.9 µg/mL | > 50 µg/mL | > 50 µg/mL | > 50 µg/mL | 4.25 µg/mL | 1.93 µg/mL | > 50 µg/mL | –
